# Key:
# recombinant human PD-L1 = recombinant human PD-L1 (Homo sapiens, UniProt Q9NZQ7 19-238); assay: BLI; PD-L1 immobilized on AR probe; BLI: 1x PBS pH 7.4, aptamers 3-12 uM, 300 s association, 600 s dissociation, temperature not stated; EMSA: TBE-PAGE, binding buffer composition not given; conditions: protein: commercial; stem-loop
# [1] = biological target: PD-L1 on MDA-MB-231-derived exosomes (UniProt Q9NZQ7 19-290); assay: ellipsometry (DP-SIS); exosomes 1e1-1e8 particles/mL; no detectable signal; BLI: 1x PBS pH 7.4, aptamers 3-12 uM, 300 s association, 600 s dissociation, temperature not stated; EMSA: TBE-PAGE, binding buffer composition not given; conditions: protein: native; stem-loop
# Chain of PD-L1 on MDA-MB-231-derived exosomes (Q9NZQ7 19-290): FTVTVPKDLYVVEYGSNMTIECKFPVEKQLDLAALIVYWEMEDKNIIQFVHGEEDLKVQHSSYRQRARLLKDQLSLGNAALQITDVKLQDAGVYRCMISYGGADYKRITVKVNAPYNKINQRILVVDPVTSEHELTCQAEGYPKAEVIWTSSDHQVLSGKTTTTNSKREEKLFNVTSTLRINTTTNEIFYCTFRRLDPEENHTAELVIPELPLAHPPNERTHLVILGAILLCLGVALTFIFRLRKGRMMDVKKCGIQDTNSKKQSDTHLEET
# Chain of recombinant human PD-L1 (Q9NZQ7 19-238): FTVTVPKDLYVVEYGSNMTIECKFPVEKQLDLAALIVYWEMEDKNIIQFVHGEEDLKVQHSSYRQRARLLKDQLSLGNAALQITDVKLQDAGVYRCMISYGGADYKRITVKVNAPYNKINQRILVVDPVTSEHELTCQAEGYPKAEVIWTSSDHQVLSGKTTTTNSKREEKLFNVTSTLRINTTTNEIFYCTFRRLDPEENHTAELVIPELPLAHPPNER
Binder,Kd (recombinant human PD-L1) [nM],binding result [1]
"GTACCTGCTCTCCGCGCGAAGCACGCCAGGGACT (structured_DNA, 5' amine (NH2)) [Tr-Apt13]",~991,
"ATAGTCCCTGGCGTGCTTGGTCGGCAGAGCAGGTACGGTGTCA (structured_DNA, 5' amine (NH2)) [Apt45]",~186,no binding
"TGACACCGTACCTGCTCTCCGCGCGAAGCACGCCAGGGACTAT (structured_DNA, 5' amine (NH2)) [Apt13]",~714,

# — paper PMC12806343, “Aptamer‐Engineered Ellipsometry for Clinical Detection of BALF‐Derived Exosomes: Multi‐Level Engineering for Prognostic Evaluation of Immunotherapy Responses”
